Test results taken from patent US20180073089.

Molecular target: recombinant substrate protein VAMP-2 (2-94)-GFP (UniProt P63027)
Sequence (P63027 2-94): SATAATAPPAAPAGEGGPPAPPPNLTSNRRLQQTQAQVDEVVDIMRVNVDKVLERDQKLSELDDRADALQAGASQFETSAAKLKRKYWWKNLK

With native BoNT/F (nBoNT/F) control as the substance, how does the “% of cleaved product” value read?
The value was 65% versus 46%.

And the specific activity?
Its specific activity is 26 nmol/h/pmol vs 18 nmol/h/pmol.
